Data set [1] has as its target T1, YejA, periplasmic solute-binding protein of the YejABEF ABC transporter from E. coli (E. coli K12, UniProt P33913 20-604).
T1 construct: YejA, E. coli K12, residues 1-585 (Gln1-Glu585) of the mature protein, without the signal peptide; numbers count on: the mature protein; also called EcYejA; recombinant YejA; source: E. coli BL21 (DE3) with pBKA101, purified (HisTrap, HRV 3C cleavage, S200 SEC); not shown: His6, C-terminal, cleaved
T1 sequence (looked up): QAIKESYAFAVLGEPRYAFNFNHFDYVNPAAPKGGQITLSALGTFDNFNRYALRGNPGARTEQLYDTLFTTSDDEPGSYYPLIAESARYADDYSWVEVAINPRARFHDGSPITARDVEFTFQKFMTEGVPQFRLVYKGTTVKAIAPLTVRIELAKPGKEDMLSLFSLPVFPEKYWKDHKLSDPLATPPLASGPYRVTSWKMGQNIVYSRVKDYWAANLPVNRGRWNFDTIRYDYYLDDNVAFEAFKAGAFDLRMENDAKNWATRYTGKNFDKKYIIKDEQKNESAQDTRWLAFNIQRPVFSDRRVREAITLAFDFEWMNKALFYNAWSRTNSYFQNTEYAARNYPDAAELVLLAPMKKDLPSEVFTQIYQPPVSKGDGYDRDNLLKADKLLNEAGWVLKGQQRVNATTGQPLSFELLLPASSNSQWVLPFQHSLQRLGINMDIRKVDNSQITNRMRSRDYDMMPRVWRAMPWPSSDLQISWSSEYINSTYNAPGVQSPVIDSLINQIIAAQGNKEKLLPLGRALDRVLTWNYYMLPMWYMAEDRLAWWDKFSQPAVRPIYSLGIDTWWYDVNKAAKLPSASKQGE
In words: thermal shift assay (SYPRO orange); 0.5 mg ml^-1 (7.3 µM) YejA, 5x SYPRO orange, 25 µl, 25-96 °C in 1 °C/30 s steps; synthetic peptides added; a shift greater than 3 °C taken as significant. The conditions noted are these: both partners purified.

The target in data set [2] is T1, YejA, periplasmic solute-binding …. The description is as above. The conditions noted are these: both partners purified. The source holds these as a separate data set.

The record followed here is publication PMC10924461, “Structure and ligand binding in the putative anti-microbial peptide transporter protein, YejA” (Microbiology, 2024).

B1: LGEPRYAFNF (peptide)
peptide: LGEPRYAFNF
notes: YejA, E. coli, stretch of the N-terminal segment; numbers count on: the mature protein; source: synthetic peptide
As for B1, the “melting temp. change with 2.5 mg ml^-1 (2.06 mM) peptide” value in data set [1] turned out to be 20 °C.

B2: FAVLGEPRYAFN (peptide)
peptide: FAVLGEPRYAFN
notes: YejA, E. coli, stretch of the N-terminal segment; numbers count on: the mature protein; source: co-purified with recombinant YejA (self-derived); synthetic peptide
Take B2: in data set [1], the “melting temp. change with 5 mg ml^-1 (3.61 mM) peptide” value is 19 °C.

B3: LGEPRYAFNFN (peptide)
peptide: LGEPRYAFNFN
notes: YejA, E. coli, residues 12-22 of the N-terminal segment; numbers count on: the mature protein; also called undecapeptide; 11-mer; source: co-purified and co-crystallised with recombinant YejA (self-derived); synthetic peptide
B3: the “melting temp. change with 0.75 mg ml^-1 (0.56 mM) peptide” value in data set [1] turned out to be 13 °C. In addition, in data set [2], the “Tm of YejA with 0.005 mg ml^-1 peptide (60.8 °C without peptide)” value came out at 62.6 °C and the “Tm of YejA with 0.05 mg ml^-1 peptide (60.8 °C without peptide)” value stood at 67.5 °C.

B4: LGEPRWAFNFN (peptide)
peptide: LGEPRWAFNFN
notes: numbers count on: the peptide (Leu1 = residue 12 of mature YejA); also called Trp-containing peptide; Trp6 containing peptide; source: synthetic peptide
As for B4, in data set [1], the “melting temp. change with 2.5 mg ml^-1 (1.85 mM) peptide” value is 22 °C.

B5: LGEPAYAFNFN (peptide)
peptide: LGEPAYAFNFN
notes: numbers count on: the peptide (Leu1 = residue 12 of mature YejA); source: synthetic peptide
As to B5, in data set [1], the “melting temp. change with 2.5 mg ml^-1 (2.01 mM) peptide” value is 7 °C.

B6: VLGEPRYAFNF (peptide)
peptide: VLGEPRYAFNF
notes: as for B2
For the protein B6, the “melting temp. change with 2.5 mg ml^-1 (1.9 mM) peptide” value in data set [1] worked out at 22 °C.

B7: VLGEPRYAFNFNHFD (peptide)
peptide: VLGEPRYAFNFNHFD
notes: YejA, E. coli, stretch of the N-terminal segment; numbers count on: the mature protein; also called 15-mer; source: co-purified with recombinant YejA (self-derived); synthetic peptide
Take B7: the “melting temp. change with 2.5 mg ml^-1 (1.37 mM) peptide” value in data set [1] turned out to be 26 °C.

B8: GEPRYAFNFN (peptide)
peptide: GEPRYAFNFN
notes: as for B1
As for B8, in data set [1], the “melting temp. change with 2.5 mg ml^-1 (2.06 mM) peptide” value was determined as 14 °C.

B9: VLGEPRYAFNFN (peptide)
peptide: VLGEPRYAFNFN
notes: YejA, E. coli, stretch of the N-terminal segment; numbers count on: the mature protein; also called dodecapeptide; 12-mer; source: co-purified with recombinant YejA (self-derived); synthetic peptide
As for B9, the “melting temp. change with 2.5 mg ml^-1 (1.75 mM) peptide” value in data set [1] worked out at 21 °C.

B10: LGEPRYAFN (peptide)
peptide: LGEPRYAFN
notes: as for B1
Turning to B10, in data set [1], the “melting temp. change with 1.25 mg ml^-1 (1.17 mM) peptide” value came to 17 °C.

B11: EPRYAFNFN (peptide)
peptide: EPRYAFNFN
notes: as for B1
As to B11, the “melting temp. change with 2.5 mg ml^-1 (2.16 mM) peptide” value in data set [1] is 8 °C.
